First the molecules themselves.
B1: 1789 AM39 IgG (antibody, V domains shown)
VH: EVQLVESGGGLVQPGGSLRLSCAASGFNVSYSSIHWVRQAPGKGLEWVASIRGAGSDTRYADSVKGRFTISADTSKNTAYLQMNSLRAEDTAVYYCARNYWGWYPFYYFAFDYWGQGTLVTVSS
VL: DIQMTQSPSSLSASVGDRVTITCRASQSVSSAVAWYQQKPGKAPKLLIYSASSLYSGVPSRFSGSRSGTDFTLTISSLQPEDFATYYCQQGWDYPITFGQGTKVEIKR
B2: 1789 AM32 IgG (antibody, V domains shown)
VH: B1 VH with S50R, A54N, G55E, S56G, R59Y
VL: B1 VL
B3: 1789 AM42 IgG (antibody, V domains shown)
VH: B1 VH with S50K, A54G, G55H, S56Q, R59H
VL: B1 VL

Numbering of substitutions follows the chain as printed.

For the first experiment, the target named is T1, human NT5E expressed on MDA-MB-231 cells (human) (UniProt P21589).
T1 sequence (looked up): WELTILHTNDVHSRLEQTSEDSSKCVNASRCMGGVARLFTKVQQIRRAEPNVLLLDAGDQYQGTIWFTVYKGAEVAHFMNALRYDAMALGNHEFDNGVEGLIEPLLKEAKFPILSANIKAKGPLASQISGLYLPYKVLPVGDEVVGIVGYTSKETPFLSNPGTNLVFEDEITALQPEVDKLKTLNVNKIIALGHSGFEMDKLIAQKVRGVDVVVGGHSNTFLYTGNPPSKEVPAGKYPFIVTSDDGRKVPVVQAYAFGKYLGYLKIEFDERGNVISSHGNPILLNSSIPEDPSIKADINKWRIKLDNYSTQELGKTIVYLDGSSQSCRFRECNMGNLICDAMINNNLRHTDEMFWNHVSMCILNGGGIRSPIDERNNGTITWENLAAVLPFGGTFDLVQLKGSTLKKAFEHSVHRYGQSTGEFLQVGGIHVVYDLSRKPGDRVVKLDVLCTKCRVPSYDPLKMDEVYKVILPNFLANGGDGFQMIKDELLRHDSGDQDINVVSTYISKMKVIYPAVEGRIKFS
The experiment is described as follows: cell-based or functional assay.
On to B1, for which the IC50 of inhibition of NT5E activity on MDA-MB-231 cells, ATP stood at 2.5 nM and the IC50 of inhibition of NT5E activity on MDA-MB-231 cells, no ATP is 6.9 nM.

B2 returned an IC50 of inhibition of NT5E activity on MDA-MB-231 cells, ATP of 2.3 nM and an IC50 of inhibition of NT5E activity on MDA-MB-231 cells, no ATP of 5.6 nM.

On to B3, for which the IC50 of inhibition of NT5E activity on MDA-MB-231 cells, ATP was 1.9 nM and the IC50 of inhibition of NT5E activity on MDA-MB-231 cells, no ATP turned out to be 5.4 nM.

The target in another experiment is T2, murine NT5E expressed on 4T1 cells (murine) (UniProt Q61503).
T2 sequence (looked up): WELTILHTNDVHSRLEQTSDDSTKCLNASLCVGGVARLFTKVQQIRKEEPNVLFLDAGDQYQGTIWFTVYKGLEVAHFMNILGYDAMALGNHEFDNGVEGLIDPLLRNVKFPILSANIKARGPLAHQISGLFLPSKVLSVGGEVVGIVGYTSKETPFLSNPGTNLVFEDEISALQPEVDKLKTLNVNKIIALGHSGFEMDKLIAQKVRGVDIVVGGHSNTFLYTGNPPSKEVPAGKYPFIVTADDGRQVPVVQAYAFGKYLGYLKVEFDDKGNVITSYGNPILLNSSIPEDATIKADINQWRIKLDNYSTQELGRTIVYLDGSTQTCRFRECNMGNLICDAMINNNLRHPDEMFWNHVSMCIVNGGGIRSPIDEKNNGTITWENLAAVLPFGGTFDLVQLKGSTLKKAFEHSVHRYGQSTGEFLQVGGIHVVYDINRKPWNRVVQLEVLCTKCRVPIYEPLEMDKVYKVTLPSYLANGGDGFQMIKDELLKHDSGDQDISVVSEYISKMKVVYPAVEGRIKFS
Nature of the experiment: cell-based or functional assay.
B1 had an IC50 of inhibition of NT5E activity on 4T1 cells, ATP of 12.7 nM.

In turn, B2 came in with an IC50 of inhibition of NT5E activity on 4T1 cells, ATP of 9.1 nM.

Take B3: the IC50 of inhibition of NT5E activity on 4T1 cells, ATP turned out to be 8.8 nM.

For the origin of these results see patent publication US20260022186A1.
